Biological target: human B7H3 ECD-His (human) (UniProt Q5ZPR3)
Assay: ForteBio BLI, antibody on AHQ sensor, 60 nM antigen, 1:1 model

Kd: 0.773 nM
Substance: Enoblituzumab (antibody)
